Laboratory results from patent US20200353088A1, “PEPTIDE CONJUGATE CGRP RECEPTOR ANTAGONISTS AND METHODS OF PREPARATION AND USES THEREOF” (Auckland UniServices Limited, priority 2017, published 2020).
Where a SMILES comes first, the peptide text is derived from it. Where no end group is shown, it is not given here. The star is where a group is joined. Ethyl(2-palmitoyloxy) = CCCCCCCCCCCCCCCC(=O)OCC*

B1: 7C(S-Pam) CGRP7-37 B1 (peptide)
peptide: CVTHRLAGLLSRSGGVVKNNFVPTNVGSKAF
modifications: Cys 7 (CGRP numbering; residue 1 of the entry) S-conjugated to 2-(palmitoyloxy)ethyl (S-Pam); C-terminal amide

How the values were obtained:
[1] = biological target: T1, CGRP (CLR/RAMP1) receptor (Homo sapiens, UniProt O60894+Q16602); experiment: Antagonism of CGRP-induced cAMP accumulation in Cos 7 cells transfected with CLR/RAMP1; format: cell-based; settings: transfected Cos-7 cells, cAMP, human alpha CGRP; mean ± s.e.m (n); Global Schild analysis; read-out: Antagonist potency (pKB), CGRP (CLR/RAMP1) (converted)
T1 construct: expressed in transfected cells; host or cells: Cos 7 (African green monkey kidney), transient transfection with polyethylenimine
Experimental: (§1) 1. Antagonism of CGRP-Induced cAMP Accumulation in Transfected CGRP Receptor Expressing Cells
(§2) Simian vacuolating virus 40 (SV40) transformed African green monkey kidney (Cos 7) cells were transiently transfected with calcitonin receptor-like receptor (CLR) or calcitonin receptor (CTR) together with receptor activity-modifying protein 1 (RAMP1) to form CGRP or AMY1(a) receptors.
(§3) On the day of experimentation, media was replaced with 50 μl DMEM containing 1 mM isobutylmethylxanthine and 0.1% bovine serum albumin for 30 min. All peptides were diluted in assay medium and after the 30 min incubation, 25 μl antagonists were added, followed immediately by 25 μl human alpha CGRP (hαCGRP), giving a total assay volume of 100 μl. Once human alpha CGRP was added, the cells were incubated at 37° C. for 15 minutes. The media was then aspirated from the wells and reactions terminated with ice-cold absolute ethanol. Ethanol was evaporated to dryness and cAMP was quantified using a commercially-available assay (LANCE Perkin Elmer).
(§4) 3. Calculation of Antagonist Potency Values
(§5) Data were analysed using Graphpad Prism 7. Antagonist pKB or pA2 values were obtained using Global Schild analysis. […] Where a single concentration of antagonist was used, pA2 values are used to describe antagonist potency.

[2] = biological target: T2, AMY1 (CTR/RAMP1) receptor (Homo sapiens, UniProt O60894+P30988); experiment: Antagonism of CGRP-induced cAMP accumulation in Cos 7 cells transfected with CTR/RAMP1; format: cell-based; settings: transfected Cos-7 cells
T2 construct: expressed in transfected cells; host or cells: Cos 7 (African green monkey kidney), transient transfection with polyethylenimine
Experimental: as §1, §2, §3, §4, §5

[3] = biological target: T3, CGRP receptor endogenously expressed in SK-N-MC cells (Homo sapiens, UniProt O60894+Q16602); experiment: Antagonism of CGRP-induced cAMP accumulation in SK-N-MC cells; format: cell-based; settings: human alpha CGRP, mean ± s.e.m (n), read-out: SK-N-MC (pA2) (converted)
T3 construct: SK-N-MC are human neuroblastoma-derived cells that endogenously express a CGRP receptor; endogenous in cells; host or cells: SK-N-MC human neuroblastoma-derived cells
Experimental: The cells were cultured in DMEM supplemented with 8% heat inactivated fetal bovine serum and kept in a 37° C. humidified 95% air/5% CO2 incubator. […] On the day of experimentation, media was replaced with DMEM containing 1 mM isobutylmethylxanthine and 0.1% bovine serum albumin for 30 min. After this period antagonists were added, followed by human alpha CGRP. Once human alpha CGRP was added, the cells were incubated at 37° C. for 15 minutes. The media was then aspirated from the wells and reactions terminated with ice-cold absolute ethanol. […] Calculation of Antagonist Potency Values Data were analysed using Graphpad Prism 7. Antagonist pKB or pA2 values were obtained using Global Schild analysis. […] Where a single concentration of antagonist was used, pA2 values are used to describe antagonist potency.

[4] = biological target: T2, AMY1 (CTR/RAMP1) receptor; experiment: cAMP assay with antagonist pre-incubation, with or without wash step, CTR/RAMP1 transfected Cos 7 cells; format: cell-based; settings: 15 min antagonist pre-incubation, mean ± s.e.m (n)
Experimental: Cos 7 cells were cultured in Dulbecco's Modified Eagle Medium (DMEM) supplemented with 8% heat inactivated fetal bovine serum and kept in a 37° C. humidified 95% air/5% CO2 incubator. […] In a different specific experimental paradigm, media was replaced with DMEM containing 1 mM isobutylmethylxanthine and 0.1% bovine serum albumin for 30 min. After this period, 25 μl of antagonist or media was added for 15 minutes at 37° C. as a pre-incubation period. After pre-incubation, the antagonist or media were aspirated from some wells, washed once with phosphate-buffered saline and replaced with 75 μl new media. The other wells with antagonist were not washed. […] Once human alpha CGRP was added, the cells were incubated at 37° C. for 15 minutes. The media was then aspirated from the wells and reactions terminated with ice-cold absolute ethanol. […] Calculation of Antagonist Potency Values Data were analysed using Graphpad Prism 7. Antagonist pKB or pA2 values were obtained using Global Schild analysis. […] Where a single concentration of antagonist was used, pA2 values are used to describe antagonist potency.

[5] = biological target: T4, human CGRP receptor (CLR/RAMP1), transiently transfected in Cos 7 cells (human, UniProt Q16602 23-461; O60894 27-148); experiment: cell-based or functional assay
[6] = biological target: CGRP receptor endogenously expressed by SK-N-MC human neuroblastoma-derived cells (human, UniProt Q16602 23-461; O60894 27-148); experiment: cell-based or functional assay
[7] = biological target: T4, human CGRP receptor (CLR/RAMP1), …; experiment: cell-based or functional assay; remark: listed apart in the source
[8] = biological target: T4, human CGRP receptor (CLR/RAMP1), …; experiment: cell-based or functional assay; remark: listed apart in the source
[9] = biological target: human AMY1(a) receptor (CTR/RAMP1), transiently transfected in Cos 7 cells (human), P30988; experiment: cell-based or functional assay
Chain of human AMY1(a) receptor (CTR/RAMP1), transiently transfected in Cos 7 cells (human), P30988 (P30988 25-474, chain 1 of 2): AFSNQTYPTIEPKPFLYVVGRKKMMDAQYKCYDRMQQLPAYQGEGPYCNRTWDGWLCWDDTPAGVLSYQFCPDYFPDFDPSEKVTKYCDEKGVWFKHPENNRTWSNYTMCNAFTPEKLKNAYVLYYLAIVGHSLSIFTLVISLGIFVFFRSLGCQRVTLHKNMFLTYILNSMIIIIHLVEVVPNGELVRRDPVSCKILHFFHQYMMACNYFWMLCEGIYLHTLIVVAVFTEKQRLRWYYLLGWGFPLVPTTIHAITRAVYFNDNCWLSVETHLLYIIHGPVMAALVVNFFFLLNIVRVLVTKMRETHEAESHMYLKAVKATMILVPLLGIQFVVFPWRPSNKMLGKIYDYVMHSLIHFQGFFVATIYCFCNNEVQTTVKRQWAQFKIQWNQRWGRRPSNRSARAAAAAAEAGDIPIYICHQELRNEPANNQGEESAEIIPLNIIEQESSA
Chain of human AMY1(a) receptor (CTR/RAMP1), transiently transfected in Cos 7 cells (human), P30988 (O60894 27-148, chain 2 of 2, further chain): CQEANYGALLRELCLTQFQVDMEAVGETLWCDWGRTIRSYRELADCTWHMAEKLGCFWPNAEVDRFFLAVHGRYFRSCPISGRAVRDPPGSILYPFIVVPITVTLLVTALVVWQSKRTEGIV

T2 sequence (P30988 25-474): as the sequence (P30988 25-474, chain 1 of 2) above
T2 sequence (O60894 27-148): as the sequence (O60894 27-148, chain 2 of 2, further chain) above
Chain of CGRP receptor endogenously expressed by SK-N-MC human neuroblastoma-derived cells (Q16602 23-461, chain 1 of 2): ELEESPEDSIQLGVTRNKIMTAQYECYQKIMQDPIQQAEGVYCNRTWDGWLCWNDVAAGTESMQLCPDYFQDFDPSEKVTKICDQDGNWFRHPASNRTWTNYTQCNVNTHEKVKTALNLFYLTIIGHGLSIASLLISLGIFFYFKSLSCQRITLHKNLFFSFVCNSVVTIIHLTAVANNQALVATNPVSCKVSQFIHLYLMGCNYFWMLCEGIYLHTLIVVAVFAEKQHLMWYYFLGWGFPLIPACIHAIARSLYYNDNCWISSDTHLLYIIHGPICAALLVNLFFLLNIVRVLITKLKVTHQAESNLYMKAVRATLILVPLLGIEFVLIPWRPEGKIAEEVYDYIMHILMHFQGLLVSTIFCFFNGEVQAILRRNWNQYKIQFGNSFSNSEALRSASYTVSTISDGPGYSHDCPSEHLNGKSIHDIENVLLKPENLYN
Chain of CGRP receptor endogenously expressed by SK-N-MC human neuroblastoma-derived cells (O60894 27-148, chain 2 of 2): as the sequence (O60894 27-148, chain 2 of 2, further chain) above
T4 sequence (Q16602 23-461, chain 1 of 2): as the sequence (Q16602 23-461, chain 1 of 2) above
T4 sequence (O60894 27-148, chain 2 of 2): as the sequence (O60894 27-148, chain 2 of 2, further chain) above
T3 sequence (Q16602 23-461): as the sequence (Q16602 23-461, chain 1 of 2) above
T3 sequence (O60894 27-148): as the sequence (O60894 27-148, chain 2 of 2, further chain) above
T1 sequence (Q16602 23-461): as the sequence (Q16602 23-461, chain 1 of 2) above
T1 sequence (O60894 27-148): as the sequence (O60894 27-148, chain 2 of 2, further chain) above

Molecule	A2 (antilog of the negative pA2; cAMP assay, Cos 7) [5] [nM]	Selectivity (fold-difference CGRP vs. AMY1) [5] [fold]	antagonist potency pKB (cAMP assay, Cos 7) [5]	A2 (antilog of the negative pA2; cAMP assay, SK-N-MC) [6] [nM]	antagonist potency pA2 (cAMP assay, SK-N-MC) [6]	A2, with wash (cAMP assay, Cos 7) [7] [nM]	A2, without wash (cAMP assay, Cos 7) [7] [nM]	antagonist potency pA2, with wash (cAMP assay, Cos 7) [7]	antagonist potency pA2, without wash (cAMP assay, Cos 7) [7]	Fold change reduction in pA2 with wash [8] [fold]	A2 (antilog of the negative pA2; cAMP assay, Cos 7) [9] [nM]	A2, with wash (cAMP assay, Cos 7) [9] [nM]	A2, without wash (cAMP assay, Cos 7) [9] [nM]	Fold change reduction in pA2 with wash [9] [fold]	antagonist potency pA2, with wash (cAMP assay, Cos 7) [9]	antagonist potency pA2, without wash (cAMP assay, Cos 7) [9]	antagonist potency pKB (cAMP assay, Cos 7) [9]	further results
CCCCCCCCCCCCCCCC(=O)OCCSC[C@H](NC(=O)[C@@H](NC(=O)[C@@H](NC(=O)CNC(=O)CNC(=O)[C@H](CO)NC(=O)[C@H](CCCNC(=N)N)NC(=O)[C@H](CO)NC(=O)[C@H](CC(C)C)NC(=O)[C@H](CC(C)C)NC(=O)CNC(=O)[C@H](C)NC(=O)[C@H](CC(C)C)NC(=O)[C@H](CCCNC(=N)N)NC(=O)[C@H](Cc1c[nH]cn1)NC(=O)[C@@H](NC(=O)[C@@H](N)C(C)C)[C@@H](C)O)C(C)C)C(C)C)C(=O)N[C@@H](CC(N)=O)C(=O)N[C@@H](CC(N)=O)C(=O)N[C@@H](Cc1ccccc1)C(=O)N[C@H](C(=O)N1CCC[C@H]1C(=O)N[C@H](C(=O)N[C@@H](CC(N)=O)C(=O)N[C@H](C(=O)NCC(=O)N[C@@H](CO)C(=O)N[C@@H](CCCCN)C(=O)N[C@@H](C)C(=O)N[C@@H](Cc1ccccc1)C(N)=O)C(C)C)[C@@H](C)O)C(C)C [A5, K24C(S-Pam) CGRP8-37] (H-VTHRLAGLLSRSGGVVC(Ethyl(2-palmitoyloxy))NNFVPTNVGSKAF-NH2)	–	–	–	–	–	–	–	–	–	–	–	–	–	–	–	–	–	Kb [1]: 6.76 nM; Kb ([2]; human alpha CGRP, mean ± s.e.m (n), read-out: Antagonist potency (pKB), AMY1 (CTR/RAMP1) (converted)): 1.78 nM; Kb ([2]; read-out: A2 (antilog of the negative pA2), AMY1 (CTR/RAMP1) (converted)): 1.8 nM; Kb [3]: 0.0871 nM; Kb ([4]; not washed, read-out: pA2, AMY1 (CTR/RAMP1), Without wash (converted)): 0.372 nM; Kb ([4]; washed once with PBS, read-out: pA2, AMY1 (CTR/RAMP1), With wash (converted)): 3.55 nM
C(Ethyl(2-palmitoyloxy))THRLAGLLSRSGGVVKNNFVPTNVGSKAF-NH2 [V8C(S-Pam) CGRP8-37 A4]	0.59	12	9.23	0.02	10.8	3.3	0.15	8.48	9.82	22	7.1	2.9	1	2.8	8.54	8.98	8.15	–
VTHRLAGLLSRSGGVVC(Ethyl(2-palmitoyloxy))NNFVPTNVGSKAF-NH2 [K24C(S-Pam) CGRP8-37 A5]	6.8	-4	8.17	0.09	10.1	0.74	0.05	9.13	10.3	14	1.8	3.5	0.37	9.6	8.45	9.43	8.75	–
B1	1.7	< 2	8.78	0.02	10.7	0.46	0.14	9.34	9.86	3.3	–	–	–	–	–	–	–	–
